Substitutions are numbered along the chain they refer to. Where two headings read alike, the source gives them in different places.

The target in assay [1] is T1, cynomolgous monkey (cyno) IL-17A (cynomolgus monkey, UniProt A0A2K5TTB0 24-155). Nature of the assay: cell-based or functional assay.
Assay [2] concerns the target T2, human IL-17A (human, UniProt Q16552 24-155). Nature of the assay: cell-based or functional assay.
T2 sequence (Q16552 24-155 limits assumed): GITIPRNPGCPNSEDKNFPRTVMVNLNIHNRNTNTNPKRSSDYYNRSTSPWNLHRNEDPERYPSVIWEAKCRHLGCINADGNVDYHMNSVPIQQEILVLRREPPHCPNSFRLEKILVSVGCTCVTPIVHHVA
The target in assay [3] is T3, human IL-17A/F (human, UniProt Q16552 24-155; Q96PD4 31-163). Nature of the assay: cell-based or functional assay.
T3 sequence (Q16552 24-155 limits assumed, chain 1 of 2): as the sequence (Q16552 24-155 limits assumed) above
T3 sequence (Q96PD4 31-163 limits assumed, chain 2 of 2): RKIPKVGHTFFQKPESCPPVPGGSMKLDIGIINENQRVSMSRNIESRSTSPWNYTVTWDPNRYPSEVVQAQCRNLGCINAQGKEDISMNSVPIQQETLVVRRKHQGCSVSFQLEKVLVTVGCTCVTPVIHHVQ
The target in assay [4] is T2, human IL-17A. The assay is described as follows: ELISA, captured antibody, serially diluted biotin-IL-17 (Example 1.5.1). (ELISA stands for enzyme-linked immunosorbent assay.)
Procedure: The following protocol is used to characterize the binding of IL-17 antibodies to human IL-17 by enzyme-linked immunosorbent assay (ELISA). […] 1. Coat ELISA plate with 50 μl per well of Goat anti Mouse IgG-Fc at 2 ug/ml, overnight at 4° C. […] 2. Wash plate 3×PBS/Tween. […] 3. Add 50 μl Mab diluted to 1 μg/ml in PBS/0.1% BSA to appropriate wells. Incubate 1 hr at room temperature (RT). […] 4. Wash plate 3× with PBS/Tween. […] 5. Add 50 μl of serial diluted biotin-IL17 (human IL-17, IL-17A/F, cyno IL-17) to appropriate wells. Incubate 1 hr at room temperature (RT). […] 6. Wash plate 3× with PBS/Tween. […] 7. […] Incubate 1 hr at RT. […] 8. Wash plate 3× with PBS/Tween. […] 9. […] 10. Stop reaction with 50 μl 2N H₂SO₄. […] Read absorbance at 450 nm.
The target in assay [5] is T1, cynomolgous monkey (cyno) IL-17A. The assay is described as follows: cell-based or functional assay. This is another data set of the same source.
The target of assay [6] is T2, human IL-17A. The assay is described as follows: cell-based or functional assay. The source holds these as a separate data set.
The target in another assay is rabbit IL-17A (rabbit). Nature of the assay: cell-based or functional assay.
Assay [7] concerns the target T3, human IL-17A/F. Nature of the assay: cell-based or functional assay. This is another data set of the same source.
Assay [8] deals with T4, mouse IL-17A (mouse, UniProt Q62386 26-158, limits assumed).
T4 sequence (looked up): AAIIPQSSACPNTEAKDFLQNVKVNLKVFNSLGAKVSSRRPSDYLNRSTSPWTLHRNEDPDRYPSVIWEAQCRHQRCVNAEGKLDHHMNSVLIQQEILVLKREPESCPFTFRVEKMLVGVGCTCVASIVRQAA
Nature of the assay: cell-based or functional assay.

Assay [9] has as its target T5, rat IL-17A (rat, UniProt Q61453 18-150, limits assumed).
T5 sequence (looked up): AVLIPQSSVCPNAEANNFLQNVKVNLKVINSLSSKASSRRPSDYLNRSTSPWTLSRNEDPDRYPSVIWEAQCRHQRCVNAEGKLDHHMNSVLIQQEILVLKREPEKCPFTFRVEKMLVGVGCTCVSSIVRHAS
Nature of the assay: cell-based or functional assay.

The target of assay [10] is T6, rat IL-17A (rat, UniProt Q61453 18-150, limits assumed).
T6 sequence (looked up): T5 sequence (looked up)
The assay is described as follows: cell-based or functional assay. The source holds these as a separate data set.

Assay [11] has as its target T7, human IL-17A (human, UniProt Q16552 24-155). Nature of the assay: cell-based or functional assay. The source holds these as a separate data set.
T7 sequence (Q16552 24-155): as the sequence (Q16552 24-155 limits assumed) above
Assay [12] addresses T8, cynomolgus monkey IL-17A (cynomolgus monkey, UniProt A0A2K5TTB0 24-155). The assay is described as follows: cell-based or functional assay.
The target of assay [13] is T7, human IL-17A. The assay is described as follows: hIL17A ELISA.
Procedure: The following protocol is used to characterize the binding of IL-17 antibodies to human IL-17 by enzyme-linked immunosorbent assay (ELISA). […] Coat ELISA plate with 50 μl per well of Goat anti Mouse IgG-Fc at 2 ug/ml, overnight at 4° C. […] Wash plate 3×PBS/Tween. […] Add 50 μl Mab diluted to 1 μg/ml in PBS/0.1% BSA to appropriate wells. Incubate 1 hr at room temperature (RT). […] Wash plate 3× with PBS/Tween. […] Add 50 μl of serial diluted biotin-IL17 (human IL-17, IL-17A/F, cyno IL-17) to appropriate wells. Incubate 1 hr at room temperature (RT). […] Wash plate 3× with PBS/Tween. […] Incubate 1 hr at RT. […] Wash plate 3× with PBS/Tween. […] Stop reaction with 50 μl 2N H₂SO₄. […] Read absorbance at 450 nm.
Assay [14] addresses T6, rat IL-17A. Nature of the assay: SPR (Biacore 3000), antibody captured by anti-Fc, antigen in solution.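 Also: purified recombinant IL-17 antigens flowed over captured antibodies in HBS-EP buffer, global Langmuir one-to-one fit of association and dissociation phases, KD derived from koff over kon.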 A general note: In SPR one partner is held on a chip, and binding of the other changes the refractive index at the surface.
Procedure: (§1) The binding of antibodies to purified recombinant human, cyno, rat, mouse, rabbit IL-17 and human IL-17A/F were determined by surface plasmon resonance-based measurements with a Biacore® 3000 instrument (Biacore® AB, Uppsala, Sweden) using running HBS-EP (10 mM HEPES [pH 7.4], 150 mM NaCl, 3 mM EDTA, and 0.005% surfactant P20) at 25° C. […] Approximately 5000 RU of goat anti-mouse or anti-human IgG (Fcγ) fragment specific polyclonal antibody (Pierce Biotechnology Inc, Rockford, Ill.) diluted in 10 mM sodium acetate (pH 4.5) was directly immobilized across a CM5 research grade biosensor chip using a standard amine coupling kit according to manufacturer's instructions and procedures at 25 μg/ml. Unreacted moieties on the biosensor surface were blocked with ethanolamine. Modified carboxymethyl dextran surface in flowcell 2 and 4 was used as a reaction surface. Unmodified carboxymethyl dextran without goat anti-mouse or anti-human IgG in flow cell 1 and 3 was used as the reference surface. For kinetic analysis, rate equations derived from the 1:1 Langmuir binding model were fitted simultaneously to association and dissociation phases of all eight injections (using global fit analysis) with the use of Biaevaluation 4.0.1 software. Purified antibodies were diluted in HEPES-buffered saline for capture across goat anti-mouse or anti-human IgG specific reaction surfaces. Antibodies to be captured as a ligand (25 μg/ml) were injected over reaction matrices at a flow rate of 5 μl/min. The association and dissociation rate constants, kon (unit M-1s-1) and koff (unit s-1) were determined under a continuous flow rate of 25 μl/min. Rate constants were derived by making kinetic binding measurements at ten different antigen concentrations ranging from 10 nM to 200 nM. The equilibrium dissociation constant (unit M) of the reaction between antibodies and recombinant purified IL-17 antigens was then calculated from the kinetic rate constants by the following formula: KD=koff/kon. Binding was recorded as a function of time and kinetic rate constants are calculated. In this assay, on-rates as fast as 10⁶ M⁻¹ s⁻¹ and off-rates as slow as 10⁻⁶ s⁻¹ can be measured.
Assay [15] concerns the target T9, human IL-17A/F (human, UniProt Q16552 24-155; Q96PD4 31-163).
T9 construct: Recombinant; biotinylated in the ELISA; also called hIL-17A/F; HuIL-17A/F
Described as above.
T9 sequence (Q16552 24-155, chain 1 of 2): as the sequence (Q16552 24-155 limits assumed) above
T9 sequence (Q96PD4 31-163, chain 2 of 2): as the sequence (Q96PD4 31-163 limits assumed, chain 2 of 2) above
Procedure: as §1

The target in assay [16] is T7, human IL-17A. The assay is described as above.
Procedure: as §1
Assay [17] deals with T10, mouse IL-17A (mouse, UniProt Q62386 26-158, limits assumed).
T10 construct: Purified recombinant protein in SPR; also called MuIL-17A; murine IL-17A
T10 sequence (looked up): T4 sequence (looked up)
Described as above.
Procedure: as §1

Assay [18] deals with T8, cynomolgus monkey IL-17A. The description is as above.
Procedure: as §1

T1 sequence (A0A2K5TTB0 entry or part of it): as the sequence (Q16552 24-155 limits assumed) above, with T3A, P8S, N34S, I77V, N78K, P104R counted along it
T8 sequence (A0A2K5TTB0 entry or part of it): as the sequence (Q16552 24-155 limits assumed) above, with T3A, P8S, N34S, I77V, N78K, P104R counted along it

B1: IL17-TN-L7-C8 (antibody, V domains shown)
VH: EVQLVQSGAEVKKPGASVKVSCKASGYTFSDFDIDWVRQATGLGLEWMGWMNPNSGNTGVAPKFRGRVSMTFNTAIRTAYLELSSLRPDDTAVYFCARSSESEGITIGFDNWGQGTLVTVSS
VL: SYELTQPPSVSVSPGQTASIPCSGDKLGNRYACWYKQKPGQPPVLVIYQDNKRPSGISERYSGSNYGDTATLTITGTQAMDEADYYCQTWDSTTGSYVFGTGTKVTVLG
notes: Fully human monoclonal antibody from mRNA display; also called IL-TN-L7-C8
Consider B1, for which the “Potency (nM), IL-17-driven IL-6 production in HS27 cells” value (“Potency (nM)” below) in assay [1] came out at 18 nM; with human IL-17A [2] it was 4.5 nM; with human IL-17A/F [3] it was 2.6 nM. Also, the EC50 (in general, the concentration needed to bring the measured effect to its halfway point) in the assay with human IL-17A [4] was 0.517 nM.

B2: IL17-B6-5 (antibody, V domains shown)
VH: EVQLVQSGAEVKKPGESVKISCKASGGSFRSYGISWVRQAPGQGLEWMGGITHFFGITDYAQKFQGRVTITADESTTTAYMELSGLTSDDTAVYYCAREPNDFWNGYYDTHDFDSWGQGTTVTVSS
VL: EIVLTQSPDFQSVTPKEKVTITCRASQNIGSELHWYQQKPDQSPKLLIKYASHSISGVPSRFSGSGSGTDFTLTINGLEAEDAATYYCHQSDTLPHTFGQGTKVDIK
notes: also called pJP243 B6.1 #5VH / pJP244 B6.1 #5VK
As for B2, the “Potency (pM), IL-17-driven IL-6 production in HS27 cells” value (shortened to “Potency (pM) … in HS27 cells”) in assay [5] amounted to 12 pM; in the assay with human IL-17A [6], 18 pM; in the assay with human IL-17A/F [7], 134 pM. The figures for the “Potency (pM), IL-17 and TNF-induced IL-6 secretion from NIH3T3 cells” value with rabbit IL-17A, in the assay with mouse IL-17A [8] and with rat IL-17A [9] were 320 pM, 64 pM and 73 pM, respectively. Besides, in the assay with human IL-17A [4], a half-maximal effect (EC50) was put at 0.22 nM.

B3: IL17-B6-17 (antibody, V domains shown)
VH: EVQLVQSGAEVKKPGSSVKVSCKASGGSFGGYGIGWVRQAPGQGLEWMGGITPFFGFADYAQKFQGRVTITADESTTTAYMELSGLTSDDTAVYYCARDPNEFWNGYYSTHDFDSWGQGTTVTVSS
VL: B2 VL with N28D, S43P, I55T, A84G, S91T, T93S, H96Y, Q100P
notes: also called pJP249 B6.1 #17VH / pJP252 B6.1 #17Vk
As to B3, the entries for the “Potency (pM) … in HS27 cells” value (in assay [5]; in the assay with human IL-17A [6]; with human IL-17A/F [7]) were 11 pM, 15 pM and 137 pM, respectively. For the same molecule, the figures for the “Potency (pM), IL-17 and TNF-induced IL-6 secretion from NIH3T3 cells” value with rabbit IL-17A, in the assay with mouse IL-17A [8] and with rat IL-17A [9] were 232 pM, 69 pM and 111 pM, respectively. The molecule also displayed an EC50 with human IL-17A [4] of 0.13 nM.

B4: IL17-TN-L7-G9 (antibody, V domains shown)
VH: EVQLLESGGGVVQPGRSLRLSCAASGFIFSNYGMHWVRQAPGKGLEWVAVISYDGSNKYYADSVKGRFTISRDNSKNTLYLEMNSLRPEDTAVYYCAKVGASGDYYYSYGLDVWGQGTTVTVSS
VL: QSGLTQPPSASGTPGQTVSISCSGSNSNIGSHSVNWYQQVPGAAPKLLMYGIGQRPSGVPDRFSVSQSGTSASLAISGLQSEDEADYYCATWDDSLGGYVFGSGTKVTVLG
notes: Fully human monoclonal antibody from mRNA display
Take B4: the “Potency (nM)” value in assay [1] is 12 nM; with human IL-17A [2] it was 0.8 nM; with human IL-17A/F [3], 2 nM. In the assay with human IL-17A [4], this molecule yielded an EC50 of 0.165 nM.

B5: IL17-TN-L7-A7 (antibody, V domains shown)
VH: B4 VH with R16T, S17F, S25T, I28T, N31A, K43R, I51T, T119M
VL: B4 VL
notes: as for B4
Take B5: the figures for the “Potency (nM)” value (in assay [1]; in the assay with human IL-17A [2]; in the assay with human IL-17A/F [3]) were 12 nM, 1.8 nM and 1.8 nM, respectively. The molecule also came in with an EC50 in the assay with human IL-17A [4] of 0.131 nM.

B6: IL17-h5C5.3 (antibody, V domains shown)
VH: EVQLVQSGAEVKKPGASVKVSCKASGYTFTDYEFHWVRQAPGQGLEWIGVIHPGNGGTAYNQNFRDRATLTADKSTSTAYMELSSLRSEDTAVYYCTRFLTYEGYFDYWGQGTLVTVSS
VL: NIVMTQTPKFLLVSPGDRVTITCKASQSVSIDVGWFQQKPGQSPKLLIYHASNRYTGVPDRFTGSGYGTDFTFTVNTVQAEDLAVYFCQQDYSSPYTFGGGTKLELKR
notes: IgG; constant regions not specified
For B6, the “Potency (pM), IL-17 and TNF-alpha-driven IL-6 production in NIH3T3 cells” value (“Potency (pM) … in NIH3T3 cells” below) with rat IL-17A [10] was 2520 pM. The “Potency (pM) … in HS27 cells” value with human IL-17A [11] worked out at 5 pM; with cynomolgus monkey IL-17A [12], 12 pM. The same molecule returned an EC50 with human IL-17A [13] of 1.37 nM.

B7: IL17-h5C5.9 (antibody, V domains shown)
VH: B6 VH
VL: DIQMTQSPSSLSASVGDRVTITCKASQSVSIDVGWFQQKPGKSPKLLIYHASNRYTGVPSRFSGSGSGTDFTFTISSLQPEDFATYFCQQDYSSPYTFGQGTKLEIKR
notes: IgG; constant regions not specified; also called h5C5.9 (VH.1b-Vk.1a)
As for B7, the “Potency (pM) … in NIH3T3 cells” value in the assay with rat IL-17A [10] was 5680 pM. Moreover, the “Potency (pM) … in HS27 cells” value turned out to be 14 pM in the assay with human IL-17A [11] and 19 pM with cynomolgus monkey IL-17A [12]. This molecule also had an EC50 with human IL-17A [13] of 0.03 nM. Moreover, the Kd (as a rule, the free concentration of one partner at which half of the binding sites on the other are occupied at equilibrium, for simple one-to-one binding) was 8.48 nM with rat IL-17A [14]; 1.21 nM with human IL-17A/F [15]; 0.44 nM with human IL-17A [16]; 2.09 nM in the assay with mouse IL-17A [17]; 0.228 nM with cynomolgus monkey IL-17A [18]. The koff – broadly, the first-order rate constant of dissociation – worked out at 0.00958 s⁻¹ in the assay with rat IL-17A [14]; 0.00115 s⁻¹ with human IL-17A/F [15]; 0.000449 s⁻¹ with human IL-17A [16]; 0.000582 s⁻¹ in the assay with mouse IL-17A [17]; 0.000239 s⁻¹ with cynomolgus monkey IL-17A [18]. Moreover, the kon (in general, a measure of how fast the partners come together) with rat IL-17A [14] stood at 1.13e+06 M⁻¹ s⁻¹; with human IL-17A/F [15], 950000 M⁻¹ s⁻¹; in the assay with human IL-17A [16], 1.02e+06 M⁻¹ s⁻¹; with mouse IL-17A [17] it was 279000 M⁻¹ s⁻¹; with cynomolgus monkey IL-17A [18], 1.05e+06 M⁻¹ s⁻¹.

B8: IL17-h5C5.8 (antibody, V domains shown)
VH: B6 VH with I48M, A68V, L70I, T97A
VL: B7 VL
notes: IgG; constant regions not specified; also called h5C5.8 (VH.1-Vk.1a)
Regarding B8, in the assay with rat IL-17A [10], the “Potency (pM) … in NIH3T3 cells” value came to 13100 pM. Further, the “Potency (pM) … in HS27 cells” value in the assay with human IL-17A [11] was 17 pM; in the assay with cynomolgus monkey IL-17A [12], 20 pM. In the assay with human IL-17A [13], this molecule had an EC50 of 0.07 nM. In addition, the equilibrium dissociation constant (Kd) with rat IL-17A [14] is 14.2 nM; with human IL-17A/F [15], 1.28 nM; with human IL-17A [16], 0.393 nM; in the assay with mouse IL-17A [17] it was 1.86 nM; with cynomolgus monkey IL-17A [18], 0.217 nM. Besides, the koff with rat IL-17A [14] stood at 0.011 s⁻¹; with human IL-17A/F [15] it was 0.00121 s⁻¹; with human IL-17A [16], 0.000444 s⁻¹; in the assay with mouse IL-17A [17], 0.000531 s⁻¹; with cynomolgus monkey IL-17A [18], 0.000226 s⁻¹. The kon was 774000 M⁻¹ s⁻¹ with rat IL-17A [14]; 948000 M⁻¹ s⁻¹ with human IL-17A/F [15]; 1.13e+06 M⁻¹ s⁻¹ with human IL-17A [16]; 285000 M⁻¹ s⁻¹ in the assay with mouse IL-17A [17]; 1.04e+06 M⁻¹ s⁻¹ with cynomolgus monkey IL-17A [18].

B9: IL17-TN-K7-B6 (antibody, V domains shown)
VH: EVQLVQSGAEVKKPGESLKISCKASGGSFRSYGISWVRQAPGQGLEWMGGITPILGTANYAQKFQGRVTITADESTTTAYMELSGLTSDDTAVYYCAREPNDFWNGYYTTHHFDYWGQGTPVTVSS
VL: DVVMTQSPDFQSVTPKEKVTITCRASQNIGSALHWYQQKPDQSPKLLIKYASQSISGVPSRFSGSGSGTDFTLTINGLEAEDAGTYYCHQSTSLPHTFGQGTKLDIKR
notes: as for B4
As to B9, the results for the “Potency (nM)” value (in assay [1]; with human IL-17A [2]; in the assay with human IL-17A/F [3]) were 18 nM, 4.5 nM and 8.1 nM, respectively. Besides, in the assay with human IL-17A [4], the EC50 is 0.447 nM.

The record behind these values is US20140348834A1 (published 2014).
